This is an account of results in the RNAGym collection of RNA variant scans (doi:10.7554/elife.90254).

B1: OR4K15 (parent)
chain: GUUAACGGUCAUAGGCCAUGGAAACUAGGAGCACCAUUUCGCUGCCAGUGAAGAAAUGAACAAAGAAAAUCUGGGCCAGGCAGGCAUCAAAAGAAAUAGUCUUGCGCUCAACCAGAAAGUCUGUAAUCAUUUUAAGGGUA

This data set covers variants of B1. In words: self-cleavage, relative activity (ratio to wild type); higher = more cleavage; in vitro, sequencing; the parent is a self-cleaving ribozyme.
As for G65A U132G, the self-cleavage came out at 0.82.

Regarding G65A U132C, the self-cleavage was determined as 0.58.

As to A68G A89C, the self-cleavage was 1.1.

As to A68G A89U, the self-cleavage is 2.23.

Regarding G65A A68G, the self-cleavage was 1.57.

Turning to A67G U127C, the self-cleavage is 1.16.

Regarding A64U G79U, the self-cleavage came to 0.17.

In the case of A64G C105U, the self-cleavage amounted to 0.12.

Turning to A64G A134U, the self-cleavage is 1.07.

Consider G65A A110C, for which the self-cleavage came to 0.19.

As to A64U A82G, the self-cleavage worked out at 0.71.

In the case of A68G A91G, the self-cleavage was 1.18.

For A68G A134U, the self-cleavage is 1.49.

For the variant A66G G137A, the self-cleavage was found to be 2.07.

For the variant G65A A116G, the self-cleavage is 0.45.

For A68G A125G, the self-cleavage was determined as 0.48.

Take A64G G136U: the self-cleavage is 2.02.

Take A67G A96U: the self-cleavage amounted to 1.03.

With A67G A96G, the self-cleavage was found to be 1.53.

Regarding A66U U72A, the self-cleavage turned out to be 0.2.

For A64G A98G, the self-cleavage stood at 0.59.

Consider A66G U132C, for which the self-cleavage amounted to 0.6.

Turning to A68G G123A, the self-cleavage is 1.45.

For the variant A67G A125U, the self-cleavage amounted to 0.11.

For A64G A117G, the self-cleavage is 1.7.

Turning to A67G C88A, the self-cleavage was determined as 1.16.

Regarding A67G U103C, the self-cleavage was determined as 1.36.

For the variant A64U A114U, the self-cleavage was determined as 0.02.

A64U A114G: the self-cleavage came out at 0.46.

On to A64G U103A, for which the self-cleavage was found to be 0.55.

Regarding G65A A140G, the self-cleavage was determined as 2.16.

On to A67U A134G, for which the self-cleavage stood at 1.09.

For the variant A68G A86U, the self-cleavage amounted to 1.51.

Consider A68G A86G, for which the self-cleavage worked out at 1.41.

A66G A67G: the self-cleavage turned out to be 1.22.

With A66G G83U, the self-cleavage was 0.61.

Take A66G G83C: the self-cleavage came out at 0.2.

A64U C113U: the self-cleavage is 0.05.

Take A64G A66C: the self-cleavage is 1.17.

Turning to A66U C113A, the self-cleavage was 0.

On to A67G A90G, for which the self-cleavage amounted to 0.96.

Turning to A67G A90U, the self-cleavage stood at 1.13.

In the case of A68C A90G, the self-cleavage is 1.24.

In the case of A67U G106C, the self-cleavage worked out at 0.01.

With A66G U102A, the self-cleavage was determined as 0.89.

On to A67G G75A, for which the self-cleavage amounted to 0.11.

In the case of A68G G80A, the self-cleavage came to 0.21.

For the variant A68G G73U, the self-cleavage turned out to be 0.07.

Take G65A U130C: the self-cleavage was determined as 0.71.

As for A68G G104A, the self-cleavage is 0.04.

A64G A68G: the self-cleavage stood at 1.54.

Turning to A64U U131C, the self-cleavage came to 1.58.

On to A67G A98U, for which the self-cleavage amounted to 1.26.

On to A67U U72C, for which the self-cleavage came to 0.31.

Regarding A67U U72A, the self-cleavage is 0.2.

With A66U A135U, the self-cleavage amounted to 0.74.

In the case of A66U A135G, the self-cleavage came out at 1.83.

Regarding A67G U133C, the self-cleavage is 1.12.

As for A67U A110G, the self-cleavage worked out at 0.25.

For A67U A91G, the self-cleavage is 1.91.

Turning to A68C U131C, the self-cleavage was 0.94.

For the variant G65A U108G, the self-cleavage is 0.01.

On to A66G A94G, for which the self-cleavage is 1.55.

Take A66G U100C: the self-cleavage is 2.05.

With A66G U100A, the self-cleavage turned out to be 0.58.

Regarding A68C A94G, the self-cleavage is 1.69.

With A66G A90U, the self-cleavage was 1.31.

As to A66G A90C, the self-cleavage stood at 0.17.

Consider A64U U70C, for which the self-cleavage amounted to 1.06.

Turning to A67G U124C, the self-cleavage amounted to 0.87.

Take A64U A98U: the self-cleavage amounted to 1.98.

For the variant A67U U130C, the self-cleavage worked out at 1.04.

As for A67G A68U, the self-cleavage is 1.13.

With A68G A114U, the self-cleavage came out at 0.04.

On to A68G A114G, for which the self-cleavage is 0.68.

Regarding A68G A114C, the self-cleavage is 0.04.

As to A66G A89U, the self-cleavage came out at 1.97.

Take A66G A98G: the self-cleavage came to 0.38.

On to A64G A82G, for which the self-cleavage is 0.35.

A64G A95G: the self-cleavage was 1.12.

As to A64G A95U, the self-cleavage was found to be 0.64.

Regarding A67U A96G, the self-cleavage is 1.65.

For A67G G137U, the self-cleavage was found to be 2.03.

As to A66G C105A, the self-cleavage worked out at 0.05.

For A67G U87C, the self-cleavage is 1.19.

Consider A68G G79U, for which the self-cleavage came out at 0.07.

Turning to A67G A126G, the self-cleavage is 1.21.

Take A64G A116U: the self-cleavage is 0.19.

As to A64G A126G, the self-cleavage turned out to be 1.05.

For A64U U132C, the self-cleavage was determined as 1.49.

In the case of A64U A126U, the self-cleavage stood at 1.2.

For A64G A91C, the self-cleavage turned out to be 1.76.

A67U U131C: the self-cleavage was 2.18.

As for A67U U131G, the self-cleavage was 1.68.

Turning to A67G C76U, the self-cleavage is 0.07.

Regarding A64G U131C, the self-cleavage turned out to be 1.2.

Take A67G C121A: the self-cleavage turned out to be 2.73.

In the case of A66G C76A, the self-cleavage came out at 0.23.

With A66U A126G, the self-cleavage was found to be 1.05.

Turning to A64U A68G, the self-cleavage is 2.16.

In the case of A64G G106U, the self-cleavage was found to be 0.02.

As to A64G C85U, the self-cleavage was 0.98.

For A66G A134C, the self-cleavage came to 1.71.

Regarding A66G A134G, the self-cleavage turned out to be 1.66.

Consider A67C A110G, for which the self-cleavage is 0.37.

Regarding A64U A95G, the self-cleavage was 1.95.

Take G65U G138A: the self-cleavage amounted to 1.24.

In the case of A68C, the self-cleavage worked out at 1.73.

Regarding A68G, the self-cleavage turned out to be 0.98.

Regarding A66G A68G, the self-cleavage was determined as 0.62.

Turning to A66G A68C, the self-cleavage came out at 1.13.

As to A66G U130A, the self-cleavage came to 0.6.

Regarding A64U U120G, the self-cleavage turned out to be 1.63.

A64U U100C: the self-cleavage is 2.38.

Turning to A64U U100A, the self-cleavage was 0.29.

For G65U A86G, the self-cleavage was determined as 0.19.

Turning to A64U A91G, the self-cleavage came out at 1.04.

For A67U A125G, the self-cleavage was determined as 1.2.

For the variant A67U U97C, the self-cleavage came to 1.43.

In the case of A67G A69U, the self-cleavage worked out at 1.32.

A67G A69C: the self-cleavage amounted to 1.68.

In the case of A66U U131C, the self-cleavage stood at 0.84.

With A66G A95G, the self-cleavage worked out at 1.54.

Take A66G A95C: the self-cleavage amounted to 1.5.

A66G A95U: the self-cleavage was found to be 0.2.

Regarding A64G A92G, the self-cleavage is 1.48.

As to G65A, the self-cleavage was 1.5.

On to G65U, for which the self-cleavage was 2.

On to G65U G83U, for which the self-cleavage is 0.44.

On to A64G A96G, for which the self-cleavage was determined as 1.92.

Take A64G A96U: the self-cleavage turned out to be 0.91.

Consider A64G G84C, for which the self-cleavage came to 0.31.

With G65C A89U, the self-cleavage was found to be 2.04.

Consider A66G A92G, for which the self-cleavage worked out at 0.74.

As to A68G A95G, the self-cleavage was determined as 1.98.

Consider A67G A140C, for which the self-cleavage worked out at 1.47.

For A66G A135U, the self-cleavage was found to be 1.08.

Consider A64G U108C, for which the self-cleavage amounted to 0.01.

In the case of A68C C88G, the self-cleavage is 1.63.

For the variant A66U A94G, the self-cleavage was determined as 1.36.

Regarding A67U A92G, the self-cleavage is 2.2.

On to A67G A110U, for which the self-cleavage turned out to be 1.46.

Regarding G65A A118G, the self-cleavage came out at 1.57.

As to A64U A117U, the self-cleavage came to 1.07.

Consider A67G C107U, for which the self-cleavage was determined as 0.01.

A66C U127C: the self-cleavage was 0.14.

Turning to A66U U103C, the self-cleavage worked out at 0.48.

As for A67U U127C, the self-cleavage was 1.01.

Regarding A68G G106A, the self-cleavage was 0.02.

As for A66G A126G, the self-cleavage was determined as 1.07.

Take A67G U132A: the self-cleavage worked out at 1.42.

As for A64G G138A, the self-cleavage amounted to 1.9.

On to A66U U120G, for which the self-cleavage was determined as 1.14.

Turning to A67U C113U, the self-cleavage worked out at 0.42.

Regarding A66U A111G, the self-cleavage was determined as 0.01.

Turning to A67U A117G, the self-cleavage turned out to be 2.28.

A64U A92G: the self-cleavage was found to be 1.11.

Regarding A66C A78G, the self-cleavage was found to be 0.32.

Regarding A64U A134G, the self-cleavage came out at 1.44.

Take A68G A126U: the self-cleavage was 0.66.

Turning to A68G A126G, the self-cleavage is 0.6.

Turning to A64G U139C, the self-cleavage amounted to 1.

For A66U U122G, the self-cleavage was 2.33.

Regarding A68C A82U, the self-cleavage is 0.23.

For the variant A64G C112U, the self-cleavage was 0.01.

Turning to A67C U87C, the self-cleavage was 1.79.

A67G U72C: the self-cleavage is 0.32.
